Where no end group is shown, it is not given here. Cy5.5 = Cy5.5 fluorophore
How the values were obtained:
[1] = biological target: T1, Epidermal growth factor receptor (EGFR), human, on cells (human, UniProt P00533 25-1210); test: confocal fluorescence microscopy, FITC channel, OE21 cells
T1 construct: whole, on cells; The expression level differs between cell lines (HT29 > SW480 > SW620); It is reduced in HT29 cells transfected with siEGFR

[2] = biological target: T1, Epidermal growth factor receptor …; test: apparent dissociation constant, flow cytometry on HT29 cells, 0-200 nM peptide, 4° C., R^2=0.95
Protocol: We measured the apparent dissociation constant of the peptide to HT29 cells as an assessment of binding affinity. QRH*-Cy5.5 was serially diluted in PBS at concentrations of 0, 10, 25, 50, 75, 100, 125, 150 and 200 nM. HT29 cells (˜10⁵) were incubated with QRH*-Cy5.5 at 4° C. for 1 hour, washed with cold PBS, and the mean fluorescence intensities were measured on flow cytometry. The equilibrium dissociation constant kd=1/kₐ was calculated by performing a least squares fit of the data to the non-linear equation I=(I₀+Iₘₐₓkₐ[X])/([…]). I₀ and Iₘₐₓ are the initial and maximum fluorescence intensities, corresponding to no peptide and at saturation, respectively, and [X] represents the concentration of the bound peptide [Thomas et al., Clin Exp Metastasis, 26:105-119 (2009)]. Origin 6.1 data analysis software (OriginLab Corp) was used to calculate kd.

fold fluorescence intensity against the GGG* control peptide [1] [fold]	Kd [2] [nM]	Binder
> 5	–	SHRNRPRNTQPS (also: FITC label, site not given here, also called SHR*-FITC; FITC-labeled peptide) [FITC labeled SHRNRPRNTQPS (SHR*) peptide]
–	50	QRHKPREGGGSK(Cy5.5)-NH2 (also called EGFR peptide) [QRH*-Cy5.5 (QRHKPRE peptide with GGGSK linker and Cy5.5 fluorophore)]
